Experimental data as given in patent US20230183305A1, “KERATIN BD-11, PREPARATION METHOD THEREFOR AND PHARMACEUTICAL COMPOSITION AND USE THEREOF” (INSTITUTE OF MATERIA MEDICA, CHINESE ACADEMY OF MEDICAL …, priority 2019, published 2023).

Legend:
[1] = system: ammonia water induced cough in ICR mice; assay: Antitussive test, cough induced by ammonia water in mice; assay type: in vivo, mouse; conditions: for Incubation period (cough): 10% ammonia water 10 s; for Incubation period (cough) / Number of coughs: X±SEM, n=9; for Number of coughs: within 2 minutes
Experimental: • Animals: male ICR mice; • Drugs and reagents: dextromethorphan hydrobromide, ammonia water, 0.2% CMC-Na, protein BD-11; • Apparatus: Compressed nebulizer (403T type), balance (XS105DU type).
Experiment grouping: • Solvent control group; • Dextromethorphan 15 mg/kg group; • Protein BD-11, 20 mg/kg group, 50 mg/kg group.
Dextromethorphan and different doses of protein BD-11 (administration volume 10 ml/kg) were given orally in groups, and the solvent control group was given the same volume of distilled water. One hour later, mice were put into a sealed box and atomized 10% ammonia water for 10 seconds, and then observed and recorded the incubation period of cough in mice and the number of coughs in 2 minutes.
Record the time point of oral administration, the time point of atomization experiment, the incubation period of mice cough and the number of coughs within 2 minutes, respectively. The incubation period of cough refers to the number of seconds from the start of the atomization of ammonia to the occurrence of cough. The performance of coughing in mice is based on contraction of their abdominal muscles (breast contraction) and opening their mouths at the same time. Calculate the mean and standard error of each group of data, and use TTEST to compare the model group with other groups, and P<0.05 is considered as a significant difference.
Give dextromethorphan (15 mg/kg) and different doses of protein BD-11 (20 mg/kg, 50 mg/kg) in advance, One hour later, the mice were put into a sealed box and atomized 10% ammonia water for 10 seconds, and then the mice were observed and recorded the incubation period of coughing and the number of coughs within 2 minutes.

[2] = system: PTZ-induced epilepsy in ICR mice; assay: Pentylenetetrazole (PTZ) induced epilepsy in mice; assay type: in vivo, mouse; set-up: mortality rate: unit not given here; conditions: for Cases of deaths / Grade IV seizure rate / mortality rate / Cases of Grade IV: PTZ 65 mg/kg i.p., 10 mice; for Cases of Grade IV: 15 min observation; for Grade III seizure incubation period / Grade IV seizure incubation period: mean±SEM; for Grade IV seizure incubation period: no Grade IV recorded as maximum 900 s
Experimental: • Animals: male ICR mice; • Medicines: Pentylenetetrazol (PTZ), Retigabine, Protein BD-11.
Experiment grouping: • Model group; • Retigabine 60 mg/kg group; • Protein BD-11, 50 mg/kg group, 200 mg/kg group;
The drug was administered once in the afternoon the day before modeling, On the day of modeling, PTZ-65 mg/kg (modeling agent) was injected intraperitoneal 1 hour after the test drug was administered intragastrically, and the positive drug can be administered once half an hour before modeling. Continue to observe for 15 minutes after injection of PTZ.
Observation index: ①Seizure situation: the time of seizures from Grade III to […]; ②Death situation
Seizure grade: Refer to Racine grading standard: Grade 0: No response; Grade I: manifested as twitching of facial muscles or the corners of the mouth; Grade II: can nod; Grade III: twitching of one limb; Grade IV: rigidity or body twitching; Grade V: generalized epilepsy (generalized tonic seizures).
Count the cases of seizures and deaths in each group of mice in the experiment; Grade III and IV incubation period. The incubation period of mice that have not attacked to Grade IV is recorded as the maximum of 900 seconds. Chi-square test was used for statistics of the number of cases. Calculate the mean and standard error of the incubation period. Use TTEST to compare the model group with other groups, and P<0.05 is considered as a significant difference.

[3] = system: lipopolysaccharide (LPS) induced fever in SD rats; assay: Lipopolysaccharide (LPS) induced fever model in SD rats; assay type: in vivo, rat; conditions: for Body temperature 2 hours after modeling: 2 h after LPS 20 µg/kg i.p.; for Body temperature 2 hours after modeling / Body temperature 4 hours after modeling / Body temperature 6 hours after modeling / Body temperature 8 hours after modeling: n=8; for Body temperature 4 hours after modeling: 4 h after LPS 20 µg/kg i.p.; for Body temperature 6 hours after modeling: 6 h after LPS 20 µg/kg i.p.; for Body temperature 8 hours after modeling: 8 h after LPS 20 µg/kg i.p.
Experimental: • Animals: 230-260 grams of male SD rats; • Drugs: lipopolysaccharide (LPS, SIGMAL-2880), aspirin (SIGMA A2093), protein BD-11; • Instruments: electronic balance (SARTORIUS BP121S type), electronic clinical thermometer (CITIZEN CT-513W type).
Experiment grouping: • Normal control group; • Model group: lipopolysaccharide fever model; • Positive control group: Aspirin 300 mg/kg group; • Protein BD-11, 10 mg/kg group, 50 mg/kg group. Method: the method of intraperitoneal injection of Lipopolysaccharide to replicate rat fever model.
Preparation of experimental animals: After the experimental animals adapt to the experimental environment (temperature 22° C.±2° C., relative humidity 50%±2%) for 1 day. Pre-adaptation to measure rectal temperature at 8:00 and 15:00, rats were fasted and water was taken freely 12 h before experiment, and let the animal to empty its feces before measuring the rectal temperature. Apply petroleum jelly to the electronic thermometer probe before each temperature measurement. Insert the rat rectum 2 cm (can be marked at 2 cm to ensure that the depth of each insertion is consistent), and record the body temperature after the reading is stable.
Intraperitoneal injection of lipopolysaccharide to replicate rat fever model: The body temperature of the rats was measured before modeling. Qualified rats with a body temperature of 36.2-37.3° C. were selected and randomly divided into groups with 8 rats in each group. After oral administration of aspirin and different doses of protein BD-11, lipopolysaccharide (20 µg/kg, 2 ml/kg) was injected intraperitoneally immediately, and the normal control group was injected intraperitoneally with an equal volume of normal saline. The body temperatures of the rats were monitored after 2 hours for a total of 8 hours.
According to the body temperature measured at each time point on the day of the experiment, calculate the mean, standard deviation and standard error of the body temperature of each group of rats. The data of each group was compared with TTEST, and P<0.05 was considered as a significant difference.
Immediately after oral administration of aspirin (300 mg/kg), protein BD-11 (10 mg/kg, 50 mg/kg), intraperitoneal injection of 20 µg/kg lipopolysaccharide was performed to establish a model. The animal body temperature was monitored at 2 hours, 4 hours, 6 hours, and 8 hours after modeling.

[4] = BD-11 50 mg/kg dose group, P<0.05

B1: BD-11: recombinant keratin, amino acid sequence SEQ ID NO:1, expressed in E. coli, band around 59 kD; Example 4 batch tested (protein, listed as Bos taurus)
chain: MSRQSTITFQTSSRRGFSTASATTPATSRSRFSSASVTHSPAGSGGLGRISGFGSRSLYNLGGTKRVSISGCGSNFRSGFGGRASSGFGVSGGFGYGGGIGGGHGGCGFSVCPPGGIQEVTVNQSLLTPLNLQIDPNIQRVRKEEREQIKTLNNKFASFIDKVRFLEQQNKVLETKWSLLQEQGTRTVRQSLEPFFEAYITDLRRQLDSITTERGRLDAELRTMQDVVEDFKVRYEDEINKRTAAENEFVALKKDVDAAYLNKVDLEAKANSLTDEINFLQMLFEAELCQMQTRVSDTSVVLSMDNNRSLDLDSIIAEVKAQYEEIANRSRAEAESWYQTKYEELQVTAGQHGDDLRNTKQEISETNRMIQRLRAEIDNVKKQCASLQTAIADAEQRGELALKDARAKLVDLEEALQKSKQDMARLLREYQELMNIKLALDVEIATYRKLLEGEECRLSGEGVSPVNISVVTSTVSSGYGGGSSIGSGSLGLSGGSGCSFMTSGGHSLGGSSFSNSSSRGLGGSGSSFKFVSTTSSSRKSYKH
Incubation period (cough) ([1]; BD-11 20 mg/kg oral): 30.0 ± 3.2 s | Number of coughs ([1]; BD-11 20 mg/kg oral): 61.8±4.7 | Cough incubation period vs solvent control group [1, 4]: significant improvement | Number of coughs vs solvent control group [1, 4]: significant improvement effect | Incubation period (cough) ([1]; BD-11 50 mg/kg oral): 35.8 ± 2.0 s | Number of coughs ([1]; BD-11 50 mg/kg oral): 50.0±4.6 | Effect on cough incubation period (summary) ([1]; dose not given): prolong the incubation period | Effect on number of coughs (summary) ([1]; dose not given): significantly reduce the number of coughs | Cases of deaths ([2]; BD-11 50 mg/kg intragastric): 0 | Grade IV seizure rate ([2]; BD-11 50 mg/kg intragastric): 90% | mortality rate ([2]; BD-11 50 mg/kg intragastric): 0 | Cases of Grade IV ([2]; BD-11 50 mg/kg intragastric): 9 | Grade III seizure incubation period ([2]; BD-11 50 mg/kg, PTZ model): 68 ± 5 s | Grade IV seizure incubation period ([2]; BD-11 50 mg/kg, PTZ model): 203 ± 81 s | Incubation period of Grade III epilepsy, comparison with model group ([2]; BD-11 200 mg/kg dose group, PTZ model): significantly different from the model group | Cases of deaths ([2]; BD-11 200 mg/kg intragastric): 0 | Grade IV seizure rate ([2]; BD-11 200 mg/kg intragastric): 60% | mortality rate ([2]; BD-11 200 mg/kg intragastric): 0 | Cases of Grade IV ([2]; BD-11 200 mg/kg intragastric): 6 | Grade III seizure incubation period ([2]; BD-11 200 mg/kg, PTZ model): 94 ± 12 s | Grade IV seizure incubation period ([2]; BD-11 200 mg/kg, PTZ model): 428 ± 130 s | Effect on increase in body temperature (summary) ([3]; 2, 4, 6 and 8 hours after modeling, dose not given): significantly inhibit the increase in body temperature | Body temperature 2 hours after modeling ([3]; BD-11 10 mg/kg oral): 37.2±0.2 °C | Body temperature 4 hours after modeling ([3]; BD-11 10 mg/kg oral): 37.7 °C | Body temperature 6 hours after modeling ([3]; BD-11 10 mg/kg oral): 37.6 °C | Body temperature 8 hours after modeling ([3]; BD-11 10 mg/kg oral): 37.4±0.1 °C | Body temperature 2 hours after modeling ([3]; BD-11 50 mg/kg oral): 37.3 ± 0.1 °C | Body temperature 4 hours after modeling ([3]; BD-11 50 mg/kg oral): 37.5 ± 0.2 °C | Body temperature 6 hours after modeling ([3]; BD-11 50 mg/kg oral): 37.7 °C | Body temperature 8 hours after modeling ([3]; BD-11 50 mg/kg oral): 37.7±0.2 °C | Effect on body temperature of model rats ([3]; BD-11 10, 50 mg/kg oral, 2 hours after modeling): tendency to lower the body temperature of model rats 2 hours after modeling, but there is no statistically significant
